B1: TPR t1 (parent)
chain: GACCAAUCUGCCCUCAGAGCUCGAGAACAUCUUCGGAUGCAGAGGAGGCAGGCUUCGGUGGCGCGAUAGCGCCAACGUCCUCAACCUCCAAUGCAUCCCACCACAUGAUGAUGCCUGAAGAGCCUUGGUUUUUUG

Variants of: B1
Assay: polymerase ribozyme fitness, log enrichment relative to wild type (log ratio); higher = more active; in vitro selection for triplet polymerase activity
How it was run: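 Fitness measures genotype enrichment against wild-type enrichment on a logarithmic scale, with inverse-variance-weighted averaging of replicates. The logarithm is base 2, and genotypes were kept only with ≥10 input reads and ≥1 read per output in Illumina sequencing. The sequenced libraries came from one triplicate in vitro selection round, including frozen incubation at −7 °C, of PCR-built, transcribed mutant libraries of each subunit of a heterodimeric triplet polymerase ribozyme.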

Q: With C8G C20A A84C C124U as the variant, how does the “polymerase ribozyme fitness (log ratio)” value read?
A: -0.801

Q: Which “polymerase ribozyme fitness (log ratio)” value does the source give for A95C U116G here?
A: -2.17

Q: Which “polymerase ribozyme fitness (log ratio)” value does the source give for C56G G71A here?
A: -4.31

Q: Which “polymerase ribozyme fitness (log ratio)” value does the source give for C28U U133G here?
A: -1.83

Q: Which “polymerase ribozyme fitness (log ratio)” value does the source give for U7G A43U G47C G58U U59G C82U G110A here?
A: -5.4

Q: For A46C C56A G110U, which “polymerase ribozyme fitness (log ratio)” value is on record?
A: -2.45

Q: With A2C C70A U116C U126C U133A as the variant, how does the “polymerase ribozyme fitness (log ratio)” value read?
A: -5.29

Q: For C80U G117A U133G, which “polymerase ribozyme fitness (log ratio)” value is on record?
A: -1.17

Q: With A84G C98A as the variant, how does the “polymerase ribozyme fitness (log ratio)” value read?
A: -6.26

Q: Which “polymerase ribozyme fitness (log ratio)” value does the source give for G71A G127C here?
A: -1.54

Q: With C72U A118G as the variant, how does the “polymerase ribozyme fitness (log ratio)” value read?
A: -0.902

Q: With U32C G60A C97A C124U U131A as the variant, how does the “polymerase ribozyme fitness (log ratio)” value read?
A: -4.71

Q: With G93U G135C as the variant, how does the “polymerase ribozyme fitness (log ratio)” value read?
A: -0.696

Q: Which “polymerase ribozyme fitness (log ratio)” value does the source give for G60A U81G U109A C124A here?
A: -7.74

Q: For C49A C56A C64U U130C, which “polymerase ribozyme fitness (log ratio)” value is on record?
A: -0.336

Q: Which “polymerase ribozyme fitness (log ratio)” value does the source give for C124G U133A here?
A: 0.826

Q: Which “polymerase ribozyme fitness (log ratio)” value does the source give for A29G C104A here?
A: -2.84

Q: For C11G C13A G117C U132A U134G, which “polymerase ribozyme fitness (log ratio)” value is on record?
A: -2.05

Q: With C13A C49G C56G U96A as the variant, how does the “polymerase ribozyme fitness (log ratio)” value read?
A: -3.42

Q: For U54C G93C G117A, which “polymerase ribozyme fitness (log ratio)” value is on record?
A: -2.18

Q: For C12A G113A, which “polymerase ribozyme fitness (log ratio)” value is on record?
A: -2.14

Q: With U7G G48U C53U A95C G117A as the variant, how does the “polymerase ribozyme fitness (log ratio)” value read?
A: -1.11

Q: Which “polymerase ribozyme fitness (log ratio)” value does the source give for A2G C12U A29U G69C A75G C94A C123U here?
A: -4.95

Q: For C64A G117U, which “polymerase ribozyme fitness (log ratio)” value is on record?
A: -6.44

Q: Which “polymerase ribozyme fitness (log ratio)” value does the source give for G52A U87C C99U here?
A: -3.97

Q: Which “polymerase ribozyme fitness (log ratio)” value does the source give for U32G C115A here?
A: -5.41

Q: For C56A C115A U126C, which “polymerase ribozyme fitness (log ratio)” value is on record?
A: -1.19

Q: For C11U C56G U112G, which “polymerase ribozyme fitness (log ratio)” value is on record?
A: -0.0117

Q: For C62U A118G, which “polymerase ribozyme fitness (log ratio)” value is on record?
A: 0.164

Q: Which “polymerase ribozyme fitness (log ratio)” value does the source give for C12U G44C A50C here?
A: -0.802

Q: For C11A A95G, which “polymerase ribozyme fitness (log ratio)” value is on record?
A: -1.37

Q: For A75G U116A G117U C123U, which “polymerase ribozyme fitness (log ratio)” value is on record?
A: -2.78

Q: Which “polymerase ribozyme fitness (log ratio)” value does the source give for C8G C56A U78C G93A C123U here?
A: 1.31

Q: Which “polymerase ribozyme fitness (log ratio)” value does the source give for U38G G52U G135C here?
A: -3.58

Q: Which “polymerase ribozyme fitness (log ratio)” value does the source give for C11A A37C A50U here?
A: -2.75

Q: For C11U C15U, which “polymerase ribozyme fitness (log ratio)” value is on record?
A: -2.2

Q: Which “polymerase ribozyme fitness (log ratio)” value does the source give for G44C C86U U96G U129C here?
A: -2.63

Q: For U38A U96A, which “polymerase ribozyme fitness (log ratio)” value is on record?
A: -1.13

Q: With A95U U130C as the variant, how does the “polymerase ribozyme fitness (log ratio)” value read?
A: -0.986

Q: Which “polymerase ribozyme fitness (log ratio)” value does the source give for G71A G120C here?
A: 0.139

Q: With C114A U131C as the variant, how does the “polymerase ribozyme fitness (log ratio)” value read?
A: -1.66

Q: With C20U G39A C56A G69U C94G as the variant, how does the “polymerase ribozyme fitness (log ratio)” value read?
A: -1.55

Q: For C20U C124U, which “polymerase ribozyme fitness (log ratio)” value is on record?
A: -0.364

Q: Which “polymerase ribozyme fitness (log ratio)” value does the source give for G10A C13U C86G here?
A: -0.113

Q: For G10C C12A A18C G42U G71A G117U G122U U130G, which “polymerase ribozyme fitness (log ratio)” value is on record?
A: -3.23

Q: With A18U C114A as the variant, how does the “polymerase ribozyme fitness (log ratio)” value read?
A: -2.02

Q: Which “polymerase ribozyme fitness (log ratio)” value does the source give for U9A G61A here?
A: 0.705

Q: Which “polymerase ribozyme fitness (log ratio)” value does the source give for G51A A68G C123G here?
A: -4.37

Q: With C12U A84U U131G as the variant, how does the “polymerase ribozyme fitness (log ratio)” value read?
A: -0.996

Q: With G57A C72U G113A C114U as the variant, how does the “polymerase ribozyme fitness (log ratio)” value read?
A: -2.53

Q: Which “polymerase ribozyme fitness (log ratio)” value does the source give for U14G A74U here?
A: -2.04

Q: With G117A U129G as the variant, how does the “polymerase ribozyme fitness (log ratio)” value read?
A: -4.37

Q: Which “polymerase ribozyme fitness (log ratio)” value does the source give for C12A C15U G69A G93U U109G here?
A: -6.39

Q: Which “polymerase ribozyme fitness (log ratio)” value does the source give for U7G U132C here?
A: 0.108

Q: With C34G A83C as the variant, how does the “polymerase ribozyme fitness (log ratio)” value read?
A: -4.9

Q: Which “polymerase ribozyme fitness (log ratio)” value does the source give for A41C G69U here?
A: -0.161

Q: With C53U A66G U112A as the variant, how does the “polymerase ribozyme fitness (log ratio)” value read?
A: -0.539

Q: For C40G G45U U106A U112A, which “polymerase ribozyme fitness (log ratio)” value is on record?
A: -0.392

Q: With G44U C72G G120C as the variant, how does the “polymerase ribozyme fitness (log ratio)” value read?
A: -0.514

Q: For A41U U92A, which “polymerase ribozyme fitness (log ratio)” value is on record?
A: -0.903

Q: With C15U U21A U96G A118U as the variant, how does the “polymerase ribozyme fitness (log ratio)” value read?
A: -0.0472

Q: With G57U G77U G122A as the variant, how does the “polymerase ribozyme fitness (log ratio)” value read?
A: -1.42

Q: For C8U A16U G77U C123U, which “polymerase ribozyme fitness (log ratio)” value is on record?
A: 0.933

Q: With C40G C101G C104U as the variant, how does the “polymerase ribozyme fitness (log ratio)” value read?
A: -3.21

Q: With C13U A41G A43C U87C G113A G122U as the variant, how does the “polymerase ribozyme fitness (log ratio)” value read?
A: -1.25

Q: With G107A U125G as the variant, how does the “polymerase ribozyme fitness (log ratio)” value read?
A: -5.84

Q: For C13G G25C C49A C98U U112A C115G, which “polymerase ribozyme fitness (log ratio)” value is on record?
A: -7.45

Q: With C40U G48A C53A G61A U132A as the variant, how does the “polymerase ribozyme fitness (log ratio)” value read?
A: -0.596

Q: With C64U C124U U130G as the variant, how does the “polymerase ribozyme fitness (log ratio)” value read?
A: 0.174

Q: For C86A G93U C115U, which “polymerase ribozyme fitness (log ratio)” value is on record?
A: -4.53

Q: With A100C U112C A118G as the variant, how does the “polymerase ribozyme fitness (log ratio)” value read?
A: 0.0171

Q: With G19U C86G as the variant, how does the “polymerase ribozyme fitness (log ratio)” value read?
A: -3.71

Q: For C22A G45A C53G C88G A111U, which “polymerase ribozyme fitness (log ratio)” value is on record?
A: -3.89

Q: For C28G U87G, which “polymerase ribozyme fitness (log ratio)” value is on record?
A: -2.01

Q: With C13G C85G C86A as the variant, how does the “polymerase ribozyme fitness (log ratio)” value read?
A: -3.16

Q: With G58A U130G as the variant, how does the “polymerase ribozyme fitness (log ratio)” value read?
A: -0.629

Q: Which “polymerase ribozyme fitness (log ratio)” value does the source give for A18C C34A C99A C123A U126A here?
A: -5.25

Q: Which “polymerase ribozyme fitness (log ratio)” value does the source give for C11U C73U C114A C123U here?
A: -2.7

Q: Which “polymerase ribozyme fitness (log ratio)” value does the source give for A90C C114U G128U here?
A: -4.34

Q: For C4G U87A, which “polymerase ribozyme fitness (log ratio)” value is on record?
A: -2.92

Q: With G42C A46U C82G as the variant, how does the “polymerase ribozyme fitness (log ratio)” value read?
A: -3.68

Q: Which “polymerase ribozyme fitness (log ratio)” value does the source give for G60A G61A C88A G120C A121U here?
A: -2.51

Q: With C28G U59G U81C G117C as the variant, how does the “polymerase ribozyme fitness (log ratio)” value read?
A: -6.32

From the RNAGym collection of RNA variant scans (doi:10.1073/pnas.2313332121)
